Test results: US20240002497A1 (Merck Sharp & Dohme, published 2024)

Legend:
huNav1.7α = target: T1, huNav1.7α (human, UniProt Q15858 1-1988); test: binding FACS, HEKa cells
T1 construct: HEK cells expressing the α subunit alone; also called HEKa; HEK huNav1.7α
Procedure: (§1) Binding of the ISVDs to cell-expressed Nav1.7α was detected via murine anti-Flag (Sigma, catalog #F1804). Briefly, cells were resuspended in FACS buffer (PBS, 10% FBS, NaN₃) and transferred to a 96-well V-bottom plate at 1×10^5 cells/well. Purified FLAG3-tagged ISVD was diluted in FACS buffer and added to the cells for 30 minutes at 4° C. […] Prior to the read-out, the samples were resuspended in 1 μg/mL propidium iodide (Sigma, catalog #P4170) to exclude dead cells. Between each step, the cells were centrifuged for 5 minutes at 200 grams and washed with 100 μL/well FACS buffer.

huNav1.7α+β1 = target: T2, huNav1.7α+β1 (human, UniProt Q15858 1-1988; Q07699 19-218); test: binding FACS, HEKa/β1 cells
T2 construct: also called huNav1.7-beta1; HEKa/β1
Procedure: as §1

huNav1.7α+β1-β2-β3 = target: T3, huNav1.7α+β1-β2-β3 (human, UniProt Q15858 1-1988; Q07699 19-218; O60939 30-215; Q9NY72 23-215); test: binding FACS, CHO FlpIn cells
T3 construct: 5N11S variant; also called huNav1.7-beta1-beta2-beta3; huNav1.7α+Navβ1-Navβ2-Navβ3
Summary of the method: (§2)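 Cells are first suspended in FACS buffer at 1×10^5 per well. Next, FLAG3-tagged ISVD is added for 30 minutes at 4° C, and binding is then detected with murine anti-Flag. Finally, samples go into 1 μg/mL propidium iodide before flow cytometry.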

rhNav1.7α + β1-β2-β3 = target: T4, rhNav1.7α + β1-β2-β3 (rhesus monkey); test: binding FACS, CHO FlpIn
T4 construct: also called rhNav1.7-beta1-beta2-beta3; rhNav1.7-β1-β2-β3
Summary of the method: as §2

huNav1.7α + β1-β2-β3 = target: T5, huNav1.7α + β1-β2-β3 (human, UniProt Q15858 1-1988; A5A6L6 19-218; O60939 30-215; Q2KI11 23-215); test: binding FACS, CHO FlpIn
T5 construct: also called huNav1.7-beta1-beta2-beta3; huNav1.7-β1-β2-β3
Summary of the method: as §2

muNav1.7α = target: T6, muNav1.7α (murine, UniProt Q62205 1-1984); test: binding FACS, HEK JmpIn
T6 construct: HEK JmpIn cells; also called murine Nav1.7α
Procedure: as §1

Row | Binder | EC50 (huNav1.7α) [nM] | EC50 (huNav1.7α+β1) [nM] | EC50 (huNav1.7α+β1-β2-β3) [nM] | EC50 (rhNav1.7α + β1-β2-β3) [nM] | Bmax (huNav1.7α + β1-β2-β3) [%] | EC50 (huNav1.7α + β1-β2-β3) [nM] | EC50 (muNav1.7α) [nM] | Bmax (rhNav1.7α + β1-β2-β3) [%] | Bmax (muNav1.7α) [%]
1 | F010301314 (VHH, vs 387G05: D23A) VHH: EVQLVESGGGLVQAGGSLRLSCAASGRILRIGYMRWHRQGAGKQREFVARITDDSATDYADSVKGRFTISRDNAKNTVYLQMNNLNPEDTAVYYCEALVTASVRGGSIHSGTYWGRGTLVTVSS | 1.9 | 1.8 | 3.5 |  |  |  |  |  | 
2 | F010301564 (VHH, vs 387G05: D53G, D54G) VHH: EVQLVESGGGLVQAGGSLRLSCDASGRILRIGYMRWHRQGAGKQREFVARITGGSATDYADSVKGRFTISRDNAKNTVYLQMNNLNPEDTAVYYCEALVTASVRGGSIHSGTYWGRGTLVTVSS | 1.9 | 2.4 | 3.5 |  |  |  |  |  | 
3 | F010301560 (VHH, vs 387G05: D53G, D54G, D58G) VHH: EVQLVESGGGLVQAGGSLRLSCDASGRILRIGYMRWHRQGAGKQREFVARITGGSATGYADSVKGRFTISRDNAKNTVYLQMNNLNPEDTAVYYCEALVTASVRGGSIHSGTYWGRGTLVTVSS | 1.2 | 1.1 | 2.1 |  |  |  |  |  | 
4 | F010301557 (VHH, vs 387G05: D23A, D53G, D54G) VHH: EVQLVESGGGLVQAGGSLRLSCAASGRILRIGYMRWHRQGAGKQREFVARITGGSATDYADSVKGRFTISRDNAKNTVYLQMNNLNPEDTAVYYCEALVTASVRGGSIHSGTYWGRGTLVTVSS | 2 | 2.1 | 3.8 |  |  |  |  |  | 
5 | F010301558 (VHH, vs 387G05: D23A, D53G, D58G) VHH: EVQLVESGGGLVQAGGSLRLSCAASGRILRIGYMRWHRQGAGKQREFVARITGDSATGYADSVKGRFTISRDNAKNTVYLQMNNLNPEDTAVYYCEALVTASVRGGSIHSGTYWGRGTLVTVSS | 1.5 | 0.93 | 1.8 |  |  |  |  |  | 
6 | F010301559 (VHH, vs 387G05: D23A, D54G, D58G) VHH: EVQLVESGGGLVQAGGSLRLSCAASGRILRIGYMRWHRQGAGKQREFVARITDGSATGYADSVKGRFTISRDNAKNTVYLQMNNLNPEDTAVYYCEALVTASVRGGSIHSGTYWGRGTLVTVSS | 0.87 | 0.92 | 1.8 |  |  |  |  |  | 
7 | F010301556 (VHH, also called F0103387G05(D23A, D53G, D54G, D58G)) VHH: EVQLVESGGGLVQAGGSLRLSCAASGRILRIGYMRWHRQGAGKQREFVARITGGSATGYADSVKGRFTISRDNAKNTVYLQMNNLNPEDTAVYYCEALVTASVRGGSIHSGTYWGRGTLVTVSS | 1.8 | 1.4 | 2.3 |  |  |  |  |  | 
8 | F010301372 (VHH, vs 387G05: S100dG) VHH: EVQLVESGGGLVQAGGSLRLSCDASGRILRIGYMRWHRQGAGKQREFVARITDDSATDYADSVKGRFTISRDNAKNTVYLQMNNLNPEDTAVYYCEALVTASVRGGGIHSGTYWGRGTLVTVSS | 2.5 | 2.3 | 4.5 |  |  |  |  |  | 
9 | F010301344 (VHH, vs 387G05: D54G) VHH: EVQLVESGGGLVQAGGSLRLSCDASGRILRIGYMRWHRQGAGKQREFVARITDGSATDYADSVKGRFTISRDNAKNTVYLQMNNLNPEDTAVYYCEALVTASVRGGSIHSGTYWGRGTLVTVSS | 1.3 | 2.1 | 4.2 |  |  |  |  |  | 
10 | F010301367 (VHH, vs 387G05: D53G) VHH: EVQLVESGGGLVQAGGSLRLSCDASGRILRIGYMRWHRQGAGKQREFVARITGDSATDYADSVKGRFTISRDNAKNTVYLQMNNLNPEDTAVYYCEALVTASVRGGSIHSGTYWGRGTLVTVSS | 2.2 | 1.9 | 4.2 |  |  |  |  |  | 
11 | F010301350 (VHH, vs 387G05: D58V) VHH: EVQLVESGGGLVQAGGSLRLSCDASGRILRIGYMRWHRQGAGKQREFVARITDDSATVYADSVKGRFTISRDNAKNTVYLQMNNLNPEDTAVYYCEALVTASVRGGSIHSGTYWGRGTLVTVSS | 1.6 | 1.7 | 3.5 |  |  |  |  |  | 
12 | F010301346 (VHH, vs 387G05: D58G) VHH: EVQLVESGGGLVQAGGSLRLSCDASGRILRIGYMRWHRQGAGKQREFVARITDDSATGYADSVKGRFTISRDNAKNTVYLQMNNLNPEDTAVYYCEALVTASVRGGSIHSGTYWGRGTLVTVSS | 1.5 | 1.6 | 3.4 |  |  |  |  |  | 
13 | F010301562 (VHH, vs 387G05: D23A, D54G) VHH: EVQLVESGGGLVQAGGSLRLSCAASGRILRIGYMRWHRQGAGKQREFVARITDGSATDYADSVKGRFTISRDNAKNTVYLQMNNLNPEDTAVYYCEALVTASVRGGSIHSGTYWGRGTLVTVSS | 1.2 | 1.9 | 2.5 |  |  |  |  |  | 
14 | F010301445 (VHH, vs 387G05: S100dY) VHH: EVQLVESGGGLVQAGGSLRLSCDASGRILRIGYMRWHRQGAGKQREFVARITDDSATDYADSVKGRFTISRDNAKNTVYLQMNNLNPEDTAVYYCEALVTASVRGGYIHSGTYWGRGTLVTVSS | 2.3 | 2 | 4.6 |  |  |  |  |  | 
15 | F010301563 (VHH, also called F0103387G05(D23A, D58G); F0103301563) VHH: EVQLVESGGGLVQAGGSLRLSCAASGRILRIGYMRWHRQGAGKQREFVARITDDSATGYADSVKGRFTISRDNAKNTVYLQMNNLNPEDTAVYYCEALVTASVRGGSIHSGTYWGRGTLVTVSS | 1.5 | 1 | 1.9 |  |  |  |  |  | 
16 | F010301561 (VHH, vs 387G05: D23A, D53G) VHH: EVQLVESGGGLVQAGGSLRLSCAASGRILRIGYMRWHRQGAGKQREFVARITGDSATDYADSVKGRFTISRDNAKNTVYLQMNNLNPEDTAVYYCEALVTASVRGGSIHSGTYWGRGTLVTVSS | 2.2 | 1.2 | 2.5 |  |  |  |  |  | 

The remaining lines, values ahead:

Row | EC50 (huNav1.7α) [nM] | EC50 (huNav1.7α+β1) [nM] | EC50 (huNav1.7α+β1-β2-β3) [nM] | EC50 (rhNav1.7α + β1-β2-β3) [nM] | Bmax (huNav1.7α + β1-β2-β3) [%] | EC50 (huNav1.7α + β1-β2-β3) [nM] | EC50 (muNav1.7α) [nM] | Bmax (rhNav1.7α + β1-β2-β3) [%] | Bmax (muNav1.7α) [%] | Binder
17 |  |  |  | 20 | 95 | 4.3 | 4.8 |  |  | F010301937 (VHH, also called F0103464B09(L11V, S82aN, K83R, V89L)) VHH: EVQLVESGGGVVQPGGSLRLSCATTSRAFIRDVFTGWYRRVPGKERELVARIYNGGNTNYADFAKGRFSISRDNAKKMVTLRMNNLRPEDTGLYYCLFSGTINTGREYRSGDYWGQGTLVTVSS
18 |  |  |  | 20 | 97 | 4.8 | 4.7 |  |  | F010301938 (VHH, also called F0103464B09(L11V, N82bS, K83R, V89L)) VHH: EVQLVESGGGVVQPGGSLRLSCATTSRAFIRDVFTGWYRRVPGKERELVARIYNGGNTNYADFAKGRFSISRDNAKKMVTLRMSSLRPEDTGLYYCLFSGTINTGREYRSGDYWGQGTLVTVSS
19 |  |  |  | 22 | 96 | 5.1 | 6.3 |  |  | F010301939 (VHH, also called F0103464B09(L11V, K83R, G88A, V89L)) VHH: EVQLVESGGGVVQPGGSLRLSCATTSRAFIRDVFTGWYRRVPGKERELVARIYNGGNTNYADFAKGRFSISRDNAKKMVTLRMSNLRPEDTALYYCLFSGTINTGREYRSGDYWGQGTLVTVSS
20 |  |  |  | 6.8 | 100 | 3.9 |  | 100 | 74 | F010302337 (VHH) VHH: EVQLVESGGGVVQPGGSLRLSCAASHRQFIRDVFTGWYRRAPGKQRELVARIYEGGNTQYADSAKGRFTISRDNAKKTVYLQMNSLRPEDTALYYCLFSGTISTGREYRSGDYWGQGTLVTVSS
21 |  |  |  | 6.8 | 100 | 4.3 | 8.7 | 100 | 61 | F010302339 (VHH) VHH: EVQLVESGGGVVQPGGSLRLSCAASHRAFIRDVFTGWYRRAPGKQRELVARIYEGGNTQYADSAKGRFTISRDNAKKTVYLQMNSLRPEDTALYYCLFSGTISTGREYRSGDYWGQGTLVTVSS
22 |  |  |  | 6.8 | 100 | 3.5 | 21 | 97 | 30 | F010302355 (VHH) VHH: EVQLVESGGGVVQPGGSLRLSCAASHRAFIRDVFTGWYRRAPGKQRELVARIYEGGNTQYADSVKGRFTISRDNAKKTVYLQMNSLRPEDTALYYCLFSGTISTGREYRSGDYWGQGTLVTVSS
23 |  |  |  | 9.6 | 100 | 4.6 | 14 | 100 | 48 | F010302347 (VHH) VHH: EVQLVESGGGVVQPGGSLRLSCAASHRAFIRDVFTGWYRQAPGKQRELVARIYEGGNTQYADSAKGRFTISRDNAKKTVYLQMNSLRPEDTALYYCLFSGTISTGREYRSGDYWGQGTLVTVSS
